B1: Q80Z37 (protein, UniProt Q80Z37 1-1033, looked up)
chain: MGSQPPPPGSPLSREEGEAPPLVPAEEGRRRSRRVRLRGSCRHRPSLLSRRELASNGPAVPATASSEIMASAAKEFKMDNFSPKAGTSKLQQTVPADASPDSKCPICLDRFDNVSYLDRCLHKFCFRCVQEWSKNKAECPLCKQPFDSIFHSVRAEDDFKEYVLRPSYNGSFTNPEVRRFRYRTTMTRERSASLYSPSSTVSRRTTTPPDSGVLFEGLGISTRPRDVDIPQFMRQMALRGPTTTDERSLRKIQEQDIINFRRTLYRAGVRVRSIEDGGRYRDISAEFFRRNPACLHRLVPWLKRELTVLFGAHGSLVNIVQHIIMSNVTRYDLESQAFVSDLRPFLLNRTEHFIHEFISFARSPFNMAAFDQHANYDCPPSSEEGSRSDSSVITISPDEAETQELDMNASTVRQAPWDDETPGPSYSSSEQVHVGVSSLLNSSDSSDEELVSGGTTSQIQGVQTNDDVNNDSDSSSDNCVIVGFVKPLAERTPELVELSSDSEELGPYEKVETVKTQEQEQSYSSGDSDVSRASSPRSVLGKDEQMSKSHCDSDTRISSKKEEKRSTSLPAPRDSSSTRGDRVCSPYNHRHRKGGRSRSSDSRSQSRSGHDPRNHRKHGKKRLRNKRSRSRESSSRPRARKDKKRSRTRDSSWSRRSQTLSLSSGSTSRSRSRSSDHGKRRSRSRNRDRYYLRNNYGSKYKWEYTYYSRNKDRDGYESSYRRRTLSRAHYSRQSSSPEFRIQSFSERTNARKKNHSERKYYYYERRRSRSVSSNRSRTTSAGPDRVRNEKPGGKRKYKTRHLEGTSEEAQPAREFTSKGKDSHYQKSKLDGSYKNESDSFSDSRSSDRETKHKRRRRRTRSLSVEIVYEGKATDTSKHHKKKKKKHKKKHKKHHGDNTSRSPVVITIDSDSDGESEVKAGIECSNGSLPQPIQDGAFETKDVVTIEDELGVLDKDCDVTALADDLSTSQTVENCDSPAVPVEQTLDVREESTFASDLESQSSNVSIQAEPSRPVPSPRTSLSSVSPGRDCDVS
modifications: full-length
B2: Q768S4 (protein, UniProt Q768S4 1-302, looked up)
chain: MADTIFSSGNDQWVCPNDRQLALRAKLQTGWSVHTYQTEKQRRSQCLSPGELEIILQVIQRAERLDILEQQRIGRLVERLETMQRNVMGNGLSQCLLCGEVLGFLGSSSVFCKDCRKKVCTKCGIEASPGQKRPLWLCKICSEQREVWKRSGAWFYKGLPKYILPLKTPGRADDPHFRPLPVEPTETQPPSAETSRVYTWARGRVVSSDSDSDSDLSSSSLEDRPLPSGVKGTKGDKPRGDSGASMESPRLGPARPPSHLSGSQSSLGSEAGTGATEPQGGTPAQPEPRVPGKRHTWATPRY
modifications: full-length
B3: Q8BM96 (protein, UniProt Q8BM96 1-785, looked up)
chain: MRSCRSCNVRVLVAIVCGLLTGIVLGLGIWRMVIRINRGIFVPVPSIPVQFCRNGGTWQNGRCICTEEWKGLRCTIANFCENSTDGEFTFGSIPVGRYGPSLQTCEPGTLNAGSPKATRLCNVSEFGNIELQNVTKGSCNINLQTLEIQINNQTASAENISREAQVLTADASKLTAQNITSATTVVGQIFGKANNESQAKKTAIATVSQILDASEDVFQKAAEMDNSKSFSNLIKQMENYSYSQGDQTVVEPNIAIQSVTRDDNSGPSVLFSVQKGSSNSLVSGRILINKTANGLNPDGQTELQILLNTGENRKSCGFMVYQNHKLFQSKTFTATSDFSQKIISSKINESEQQRQNKVSVEMVFNPTYDKRELRLHSYACVYWNFLINDWDTQGCQKTGNTTEFLRCNCSHTTNFAVLMSFKKDYKYPKSLDILSNIGCALSIAGLALTILFQILTRKIRKTSVTWVLVSLCSSMLIFNLLFVFGIENSNKNLKTSDSDINVKPENNKIPESDTIETPNPSCTAIAALLHYFLLVTFTWNGLSATQLYFLLIRTMKPLPRHFIIFISLVGWGVPAIIVGVTIGSIYALSGNKRYWELDYRQEEICWLAVPKDNDYARSPLLWSFIIPVTIILITNITIFVIITVKVLWKNNQNLTSTKKVSSLKKVFSTLSIAVVFGVTWILAYAMLISNDDIRIVFSYIFCLFNTTQGLQIFILYTVRTKVFQSEASKILKSLSSSFDRTKPMPSITPLKLRVRMYNMLRSLPSLNERFRLLEPSGMTEETSLS
modifications: full-length
B4: Q80V42 (protein, UniProt Q80V42 1-443, looked up)
chain: MDRARLWLGLLLPVVAALDFRYHHQEGMEAFLKSVAQNYSSITHLHSIGKSVRGRNLWVLVVGQTPKEHRVGIPEFKYVANMHGDETVGRELLLHLIDYLVSSYRKDPEITHLIDSTRIHIMPSMNPDGFEAVQKPDCYYSNGRENYNNYDLNRNFPDAFENNNVTKQPETLAIMEWLKTETFVLSANLHGGALVASYPFDNGVQATGTLLSRSLTPDDDVFQHLAYTYASRNPNMTKGDQCKNKRNFPNGIINGYSWYPLQGGMQDYNYIWAQCFEITLELSCCKYPREEKLPLFWNDNKASLIEYIKQVHLGVKGQVFDQSGAPLPNVIVEVQDRKHICPFRTNKLGEYYLLLLPGSYVINVTVPGHDSYLTKLTIPGKSQPFSALKKDFHLPLRWQPDSISVSNPSCPMIPLYKFMPSHSAATKPSLGVFFMTLLYVFFK
modifications: full-length
B5: Q7TNV0 (protein, UniProt Q7TNV0 1-380, looked up)
chain: MSAAAAPAAEGEDAPVPPSSEKEPEMPGPREESEEEEEDDEDDDEEDEEEEKEKSLIVEGKREKKKVERLTMQVSSLQREPFTVTQGKGQKLCEIERIHFFLSKKKPDELRNLHKLLYNRPGTVSSLKKNVGQFSGFPFEKGSTQYKKKEEMLKKFRNAMLKSICEVLDLERSGVNSELVKRILNFLMHPKPSGKPLPKSKKSSSKGSKKERNSSGTTRKSKQTKCPEILSDESSSDEDEKKNKEESSEDEEKESEEEQPPKKTSKKEKAKQKATAKSKKSVKSANVKKADSSTTKKNQKSSKKESESEDSSDDEPLIKKLKKPPTDEELKETVKKLLADANLEEVTMKQICKEVYENYPAYDLTERKDFIKTTVKELIS
modifications: full-length
B6: Q8BK48 (protein, UniProt Q8BK48 1-559, looked up)
chain: MPLYKLLGWLNAVACGVLLLVLHVQGQDSASPIRNTHTGQVRGSLVHVKDTDIAVHTFLGIPFAKPPVGPLRFAPPEAPEPWSGVRDGTSHPNMCLQNDNLMGSEDLKMMNLILPPISMSEDCLYLNIYVPAHAHEGSNLPVMVWIHGGALTVGMASMYDGSMLAATEDVVVVAIQYRLGVLGFFSTGDQHAKGNWGYLDQVAALRWVQQNIVHFGGNPDRVTIFGESAGGTSVSSHVVSPMSQGLFHGAIMESGVAVLPDLISSSSEMVHRIVANLSGCAAVNSETLMCCLRGKNEAEMLAINKVFKIIPGVVDGEFLPKHPQELMASKDFHPVPSIIGINNDEYGWILPTIMDPAQKIEEITRKTLPAVLKSTALKMMLPPECGDLLMEEYMGDTEDPETLQAQFREMKGDFMFVIPALQVAHFQRSHAPVYFYEFQHRPSFFKDFRPPYVKADHGDEIFLVFGYQFGNIKLPYTEEEEQLSRRIMKYWANFARHGNPNSEGLPYWPVMDHDEQYLQLDIQPSVGRALKARRLQFWTKTLPQKIQELKGSQERHKEL
modifications: full-length
B7: Q80XU3 (protein, UniProt Q80XU3 1-234, looked up)
chain: MSRPVRNRKVVDYSQFQESDDADEDYGRDSGPPAKKIRSSPREAKNKRRSGKNSQEDSEDSEEKDVKTKKDDSHSAEDSEDEKDDHKNVRQQRQAASKAASKQREMLLEDVGSEEEPEEDDEAPFQEKDSGSDEDFLMEDDDDSDYGSSKKKNKKMVKKSKPERKEKKMPKPRLKATVTPSPVKGKAKVGRPTASKKSKEKTPSPKEEDEEAESPPEKKSGDEGSEDEASSGED
modifications: full-length
B8: Q7TQD2 (protein, UniProt Q7TQD2 1-218, looked up)
chain: MADSKAKPAKAANKTPPKSPGDPARAAKRLSLESEGANEGATAAPELSALEEAFRRFAVHGDTRATGKEMHGKNWSKLCKDCHVIDGKNVTVTDVDIVFSKIKGKSCRTITFEQFQEALEELAKKRFKDKSSEEAVREVHRLIEGRAPVISGVTKAVSSPTVSRLTDTSKFTGSHKERFDQSGKGKGKAGRVDLVDESGYVPGYKHAGTYDQKVQGGK
modifications: full-length

System: intracellular proteome of ENR+CD and ENR organoids
Experiment: LC-MS/MS TMT proteomics of ENR+CD versus ENR organoids
Format: cell-based, C57BL/6 mice
Conditions: for Average logFC: ENR+CD versus ENR organoids, sample pairs in aggregate (n=4, 2 technical replicates from two biological donors); for M1-1 Log2 Median Normalized / M1-2 Log2 Median Normalized / M2-1 Log2 Median Normalized / M2-2 Log2 Median Normalized: protein abundance ratio ENR+CD versus ENR organoids, LC-MS/MS TMT proteomics; for M1-1 Log2 Median Normalized: sample pair M1-1; for M1-2 Log2 Median Normalized: sample pair M1-2; for M2-1 Log2 Median Normalized: sample pair M2-1; for M2-2 Log2 Median Normalized: sample pair M2-2; for change: up = enriched in ENR+CD, down = enriched in ENR, FDR<0.05 and log fold change cut-off

Row | Molecule | Average logFC | M1-1 Log2 Median Normalized | M1-2 Log2 Median Normalized | M2-1 Log2 Median Normalized | M2-2 Log2 Median Normalized | change
1 | B1 | 1.193 | 1.31 | 0.914 | 1.7665 | 0.782 | up
2 | B2 | 1.363 | 1.2 | 0.548 | 1.8455 | 1.859 | up
3 | B3 | −1.142 | −0.895 | −1.193 | −1.2285 | −1.142 | down
4 | B4 | 1.366 | 1.517 | 1.383 | 1.3355 | 1.228 | up
5 | B5 | −1.42 | −1.8 | −0.726 | −1.2915 | −1.861 | down
6 | B6 | −1.69 | −1.646 | −1.907 | −2.1625 | −1.046 | down
7 | B7 | −1.313 | −1.892 | −0.72 | −1.5225 | −1.116 | down
8 | B8 | 1.241 | 1.195 | 1.666 | 0.7645 | 1.337 | up

— patent US11994512B2, “Single-cell genomic methods to generate ex vivo cell systems that recapitulate in vivo biology with improved fidelity” (Massachusetts Institute of Technology, priority 2018, dated 2024)
